Measurements as given in US20030148417A1.

Tests used:
Assay in all cases: cell-based or functional assay
[1] = target: recombinant TcAP2 protein (aspartic endoproteinase from Theobroma cacao, secreted by Yarrowia lipolytica clone pCY330-33) (Theobroma cacao)
[2] = target: native purified aspartic endoproteinase from cacao beans (TcAP2, 30.5 kDa polypeptide), size exclusion pool #57-64 (Theobroma cacao)
[3] = target: bovine haemoglobin (bovine) (UniProt P01966)
Sequence of bovine haemoglobin (bovine) (P01966 2-142, chain 1 of 2): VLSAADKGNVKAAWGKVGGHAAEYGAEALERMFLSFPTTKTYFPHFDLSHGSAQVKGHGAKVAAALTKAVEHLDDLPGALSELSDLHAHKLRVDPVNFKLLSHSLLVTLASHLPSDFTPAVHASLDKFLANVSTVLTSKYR
Sequence of bovine haemoglobin (bovine) (P02070 whole entry, chain 2 of 2, further chain): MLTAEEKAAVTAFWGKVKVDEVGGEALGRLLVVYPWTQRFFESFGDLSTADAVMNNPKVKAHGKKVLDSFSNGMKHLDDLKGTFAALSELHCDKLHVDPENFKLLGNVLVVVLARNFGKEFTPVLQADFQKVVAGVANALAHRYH

Sequence of native purified aspartic endoproteinase from cacao beans (TcAP2, 30.5 kDa polypeptide), size exclusion pool #57-64 (Theobroma cacao) (chain, as listed by the source limits assumed, form in doubt): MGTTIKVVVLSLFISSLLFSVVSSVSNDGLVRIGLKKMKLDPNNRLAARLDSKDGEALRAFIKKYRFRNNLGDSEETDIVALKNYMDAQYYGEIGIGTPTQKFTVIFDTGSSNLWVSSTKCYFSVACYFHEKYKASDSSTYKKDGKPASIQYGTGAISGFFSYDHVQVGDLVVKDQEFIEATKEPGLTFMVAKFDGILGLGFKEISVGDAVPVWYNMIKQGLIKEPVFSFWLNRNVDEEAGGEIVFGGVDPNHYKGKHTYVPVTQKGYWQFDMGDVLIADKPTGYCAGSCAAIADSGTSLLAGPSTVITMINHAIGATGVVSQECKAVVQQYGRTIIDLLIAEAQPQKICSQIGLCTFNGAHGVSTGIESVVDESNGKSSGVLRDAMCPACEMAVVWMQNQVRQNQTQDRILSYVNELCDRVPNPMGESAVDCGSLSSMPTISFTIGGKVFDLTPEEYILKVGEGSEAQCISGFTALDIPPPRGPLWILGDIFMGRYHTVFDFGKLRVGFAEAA

| pepstatin insensitive activity (hydrolysis of bovine haemoglobin, 2 µM pepstatin), percent of uninhibited activity [1] [%] | Remaining Activity % (hydrolysis of bovine hemoglobin, 0.002 mM Pepstatin A) [2] [%] | hydrolysis of bovine haemoglobin, activity at pH 3 without inhibitor (taken as 100%) (pmoles L-leucine produced/min/mg protein) [3] | Substance |
| --- | --- | --- | --- |
| 6.65 | 0 | – | Pepstatin A (peptide) |
| – | – | 28.8 | recombinant TcAP2 protein (aspartic endoproteinase from Theobroma cacao, secreted by Yarrowia lipolytica clone pCY330-33) (enzyme) |
